Reference: the domain aggregation screens of Martell et al. (2025)

Assay: soluble fraction after stress (log2 fold change); higher = more stays soluble; pooled small domains, quantitative proteomics
Conditions: stress: pH 4
How it was run: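 High-throughput quantitative proteomics was run on pooled custom libraries of small protein domains following pH 4 stress. Fold changes are on a log2 scale; higher values mean more of a domain remained soluble. The fold change in soluble amount is taken as a measure of aggregation propensity.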

Point of comparison: “HMNALNDLESKIFEEVVKAPEIIMNMTIREFASTVHASPTTIVRMTHKLGFSGWNELKTYLQKQKHQIS”, “soluble fraction (log2)” value -0.0849. Against it:
- HMLTRYNVNYYYNGEILQRRKVAEGSAAERITYLSGSLEVTDWYTEADLLRKYDFTEPVTGDLNLYAFARI — lower, -0.556
- HMLTSAQLAEIRQAVRAGQASVVEDLLKNGASPNFRMENGDTGFTYAVRADTPQVAEALLKSGKL — within 0.2 log units, -0.00206
- HMLTTIRKATVNDKTRIMEIYAYARQFMAEHGNPNQWKNNNPSEETIDNDIAKQEMYVIETDGEVHAVFY — lower, -1.42
- HMLVDWNYLEGKRGVTTTPLTPSGKARFGDDVVNVLSDGVLVSTGTPVRVLQVLGNRVLVEPLDG — within 0.2 log units, 0.0163
- HMLVGRDPQALILGSMPSEKSLEEDEYYAHPRNRFWSLMNWLLAGNKTRPAYKTGIEILSSHGIALWV — lower, -0.578
- HMLVIMKTGASEEEIGRVIERIEGEGLSAHVSRGTERTVIGVIGQGVDVHRIAGVLGGMSGVESLVPIS — within 0.2 log units, 0.0269
- HMLVLAENMDVIFTRRTLDDHVVVDYKTTIGEMVKNDEIKGENMDELISAVEKDGYELVSSTSGEIIFLND — lower, -0.704
- HMLVVEPSAELKTIIDKTASFVARNGPEFEARIKNEQNNAKFSFLQPNDPFNPYYRAKIVELGGTV — within 0.2 log units, -0.174
- HMLVYQRLDKDNFIFEGKTLLNDIYKILDIESNYFEAIRGEADSIAGLLLEIAKSIPTINTEF — lower, -0.571
- HMLYEDVQVPNVRYWKSRDAKKQLEDLGLRVLTEHVNDAYIQSDQVIRTSPEIGDTLRTGDTVTLYVSDG — higher, 0.146
- HMMKLSKRQEQIIAVVKEHQPVSGERISDILAVSRATLRSDLSFLTLSGILKASPKVGYTYES — higher, ≥ 0.43
- HMMLVKKMLNGIMMKEITIKELADQYDVSTRTIQLKIKKLGYEWDSKESIYRYVGKESEPLDVDFSTLI — lower, -1.47
- HMMQEIKLEVINNEELRIDNYINLAGIGLSRSYIQKLIKDGVILVNGKEVKSSYKVSLGDIISVQIPDPG — within 0.2 log units, -0.209
- HMMVIMRANATEPQIANVVAYVEKNGLNAHLSRGAERTVIGVVGDIRRVSKETFELMDGVDSVMRIS — lower, -0.734
- HMNADKEALIAAAYRNSLIENFGTENVERYEERFNKWADKHDRQGMPMYPTIEKWMNEDNIA — within 0.2 log units, -0.209
- HMNADRIVGQTAKVIHPITPDEKGRVMVDNLDWAAAAQNRGESFEVGEEVSIVRIEGVTVYVQK — lower, -0.57
- HMNADTVIGKAGTVIEKIDNVAATGAVKIDGKVWTARSERDNITIDEGTLVKAMAIEGVKLIVEPVT — within 0.2 log units, 0.0947
- HMNAEGLIGREAVALTAVDAHGGRVRLGGEEWSARLSKENGGVSRLSVGDPVRVTDIDGAIAVVAP — within 0.2 log units, 0.0456
- HMNAEQLAQVRRQKIGFIFQDFRLFPEYTVRDNILIPFYLDHRAPDEQMLHKLTGILGIAGKLHSRPAQL — within 0.2 log units, -0.0979
- HMNAKVVAPIPGTVLSIDIKVGDVIKIGDRLLVLEAMKMENNIASEKSGTVTAVHVKVGQQVLQNELMIEL — lower, -1.2
- HMNALREVNTSILNVRSGAGTNYSKIGSLTQATRVSVISESNGWSKINYNGKVGYVSSQYLS — higher, ≥ 0.43
- HMNAMKPVLTVSLGVHTDSLSRRLNEEGIIYRWQQAASEQLLLVDSESSSERIAELIHDWRLEQSSS — within 0.2 log units, -0.051
- HMNANTILNSQRILTQLGFNPGPIDGAFGAKTKGALNAFYTSIGKSYDGLLDSNELVELQKALDVSGLKN — within 0.2 log units, -0.198
- HMNDADAHASVDAALKHLEALAETTPEVRAALELVRRGPDGRVTVDSFARVAEALREISIAVGAS — lower, -0.632
- HMNDELMEQIDEWHKAEKHQEIIDALEQIPEAERDFETTGFLARAYNNIEEYAKAADLLESVRE — lower, -1.51
- HMNDGEIAAPVSGTLQSFKVEDGQTVSEGDLVAVMEAMKMETQILATKGGTIRLLVKEGDYLQAGHALMTI — lower, -1.07
- HMNDGTIRVGTNVTIKPSAKRWATGQNIYYGVKGKTYKVIQMNGNRLLLDKVISWINKGDVYVPGS — higher, 0.192
